± gives the standard error. For part of these data: Fewer inactive variants are shown than the library holds.
B1: glmS ribozyme (parent)
chain: AUAAAAGCGCCAGAACUACAGAAAUGUAGUUGACGAGGAGGAGGUUUAUCGAAUUUUCGGCGGAUGCCUCCAAA

Assays:
Conditions in all cases: with glucosamine-6-phosphate
glucosamine-6-phosphate [1] = variants of: B1; assay: kcat; higher = faster cleavage; RNA array
Procedure, shortened: (§1)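 Barcoded ribozyme variants on sequenced MiSeq chips were transcribed in situ by E. coli RNA polymerase and followed at 37 °C through a hybridised Cy3 probe. Glucosamine-6-phosphate at 40 μM to 10 mM in HEPES/KCl/Mg(OAc)2 buffer was flowed in, and tiles were imaged over ~14 h. Signals were normalised to baseline and to non-cleaving reference variants, and per-tile medians were fit to one- or two-exponential decays to give kobs. Weighted Michaelis–Menten fits across concentrations gave kcat and KM.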

glucosamine-6-phosphate [2] = variants of: B1; assay: KM; higher = weaker cofactor use; RNA array
Procedure, shortened: as §1

glucosamine-6-phosphate [3] = variants of: B1; assay: self-cleavage kobs at 160 uM GlcN6P; higher = faster cleavage; RNA array
Procedure, shortened: as §1

glucosamine-6-phosphate [4] = variants of: B1; assay: self-cleavage kobs at 640 uM GlcN6P; higher = faster cleavage; RNA array
Procedure, shortened: as §1

glucosamine-6-phosphate [5] = variants of: B1; assay: self-cleavage kobs at 2500 uM GlcN6P; higher = faster cleavage; RNA array
Procedure, shortened: as §1

glucosamine-6-phosphate [6] = variants of: B1; assay: self-cleavage kobs at 10000 uM GlcN6P; higher = faster cleavage; RNA array
Procedure, shortened: as §1

glucosamine-6-phosphate [7] = variants of: B1; assay: self-cleavage kobs at 40 uM GlcN6P; higher = faster cleavage; RNA array
Procedure, shortened: as §1

Variant	kcat (glucosamine-6-phosphate [1])	KM (glucosamine-6-phosphate [2])	self-cleavage kobs at 160 uM GlcN6P (glucosamine-6-phosphate [3])	self-cleavage kobs at 640 uM GlcN6P (glucosamine-6-phosphate [4])	self-cleavage kobs at 2500 uM GlcN6P (glucosamine-6-phosphate [5])	self-cleavage kobs at 10000 uM GlcN6P (glucosamine-6-phosphate [6])	self-cleavage kobs at 40 uM GlcN6P (glucosamine-6-phosphate [7])
G37A U47G	0.000419 ± 0.0001 s⁻¹	1250 ± 600 µM	9.69e-05 ± 1.9e-05 s⁻¹	0.000127 ± 1.6e-05 s⁻¹	0.000274 ± 4.4e-05 s⁻¹	0.000396 ± 5.4e-05 s⁻¹	–
A15U A39U	0.00466 ± 0.00041 s⁻¹	2280 ± 280 µM	0.000251 ± 5.5e-05 s⁻¹	0.0011 ± 0.00013 s⁻¹	0.00233 ± 0.00043 s⁻¹	0.0038 ± 0.0004 s⁻¹	8.33e-05 ± 9.7e-06 s⁻¹
G62U C67G C68U	1.17e-05 ± 4.6e-06 s⁻¹	–	–	–	–	–	–
G32C A53C	3.63e-05 ± 2.4e-06 s⁻¹	–	< 1e-05 s⁻¹	< 1e-05 s⁻¹	–	–	< 1e-05 s⁻¹
A33U U65A	3.37e-05 ± 1.5e-06 s⁻¹	–	< 1e-05 s⁻¹	< 1e-05 s⁻¹	–	–	< 1e-05 s⁻¹
C50U C61G C70U	1.56e-05 ± 2.6e-06 s⁻¹	–	–	–	–	–	–
U65C C68U	2.26e-05 ± 1.2e-06 s⁻¹	558 ± 230 µM	–	–	–	–	–
A12U A39C A52G	0.000172 ± 2.4e-05 s⁻¹	2140 ± 680 µM	–	4.67e-05 ± 1.3e-05 s⁻¹	8.04e-05 ± 1.8e-05 s⁻¹	0.00015 ± 2.7e-05 s⁻¹	–
U31C G41U	0.000175 ± 1.4e-05 s⁻¹	1350 ± 260 µM	–	5.36e-05 ± 1e-05 s⁻¹	0.000117 ± 1.7e-05 s⁻¹	0.000153 ± 2e-05 s⁻¹	–
A14U A33C	7.66e-05 ± 5.8e-06 s⁻¹	1620 ± 560 µM	–	–	5.28e-05 ± 1.3e-05 s⁻¹	6.52e-05 ± 7.3e-06 s⁻¹	–
U30G	0.0156 ± 0.0046 s⁻¹	2400 ± 840 µM	0.000809 ± 3e-05 s⁻¹	0.00344 ± 0.00013 s⁻¹	0.00622 ± 0.00028 s⁻¹	0.0157 ± 0.00058 s⁻¹	0.000284 ± 5.6e-06 s⁻¹
U30C	0.000469 ± 2.4e-05 s⁻¹	1950 ± 180 µM	4.18e-05 ± 1.9e-06 s⁻¹	0.000113 ± 2e-06 s⁻¹	0.000759 ± 0.00027 s⁻¹	0.000395 ± 6.5e-06 s⁻¹	–
C16G A33G	< 1e-05 s⁻¹	–	–	–	–	–	< 1e-05 s⁻¹
A6U C16G	5.15e-05 ± 3.5e-06 s⁻¹	3290 ± 720 µM	–	–	2.28e-05 ± 1e-05 s⁻¹	3.87e-05 ± 6.9e-06 s⁻¹	–
A14G G32U	0.00512 ± 0.001 s⁻¹	5710 ± 1400 µM	0.000137 ± 1.8e-05 s⁻¹	0.000476 ± 5.1e-05 s⁻¹	0.00158 ± 0.00017 s⁻¹	0.00329 ± 0.0004 s⁻¹	4.82e-05 ± 7.9e-06 s⁻¹
G29A A39C	0.000943 ± 4.4e-05 s⁻¹	1820 ± 150 µM	7.61e-05 ± 1.5e-05 s⁻¹	0.000243 ± 3.2e-05 s⁻¹	0.000521 ± 8.6e-05 s⁻¹	0.000813 ± 9.1e-05 s⁻¹	2.46e-05 ± 8.5e-06 s⁻¹
